Reference: the supplement of paper PMC10724198
± gives the standard deviation of the averaged measurements.

Test system: Saccharomyces cerevisiae
Test: protein stability index of tFT-peptide fusion (C-terminal peptide) (PSI (0-1 scale)); higher = more stable (slower turnover)
Settings: temperature: 30 C
Method: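 MPS profiling in S. cerevisiae of the yeast C-terminome library: the last 12 aa of each annotated ORF are fused to the C-terminus of a sfGFP-mCherry timer, after a GGGS linker. Cells are FACS-sorted into 8 mCherry/sfGFP bins and deep-sequenced. PSI runs from 0 (unstable) to 1 (stable); wild type and das1Δ backgrounds, two technical replicates each.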

[1] = genetic background: das1 deletion

Sequence	protein stability index [1]	protein stability index (genetic background: wild type)
SIINPSSNGCNK [YNL235C C-terminal 12 aa]	0.702 ± 0.028	0.615 ± 0.018
SILGMQDMWKAT [PEX11 C-terminal 12 aa]	0.707 ± 0.017	0.713 ± 0.022
SILTHSTSPDSR [HYM1 C-terminal 12 aa]	0.727 ± 0.033	0.718 ± 0.076
SITLDDLENIFN [GDS1 C-terminal 12 aa]	0.735 ± 0.026	0.711 ± 0.021
SKSGSGGCCIIS [RAS2 C-terminal 12 aa]	0.736 ± 0.0091	0.711 ± 0.011
SLIPRFDNLLSK [GGC1 C-terminal 12 aa]	0.7062 ± 0.0052	0.732 ± 0.015
SLLLEKLDPEIE [UBX5 C-terminal 12 aa]	0.731 ± 0.056	0.716 ± 0.013
SLNLILISMTFI [YCR097W-A C-terminal 12 aa]	0.429 ± 0.0075	0.449 ± 0.0049
SLSSRGKIFSST [EFR3 C-terminal 12 aa]	0.698 ± 0.01	0.657 ± 0.011
SNYNNRTTDMPL [PSP2 C-terminal 12 aa]	0.6781 ± 0.0018	0.703 ± 0.1
SPFIPKKRKPRS [SEN1 C-terminal 12 aa]	0.6983 ± 0.0065	0.704 ± 0.036
SPIQLKDLESQI [SYS1 C-terminal 12 aa]	0.677 ± 0.019	0.717 ± 0.0082
SQAIPKKKKVLE [MEK1 C-terminal 12 aa]	0.6937 ± 0.0011	0.6887 ± 0.0063
SQGNVYLPGVAW [NOC4 C-terminal 12 aa]	0.707 ± 0.009	0.738 ± 0.081
SQLLNLLQDLDT [ENV7 C-terminal 12 aa]	0.696 ± 0.02	0.722 ± 0.011
SRFRTNIAFITQ [YJL015C C-terminal 12 aa]	0.71 ± 0.012	0.70081 ± 0.00066
SRGHDLASEYPL [ERS1 C-terminal 12 aa]	0.706 ± 0.015	0.682 ± 0.0085
SRLFSEEKSSVH [YJL150W C-terminal 12 aa]	0.7239 ± 0.0066	0.694 ± 0.024
SRQFEQNLQIND [SLF1 C-terminal 12 aa]	0.7394 ± 0.0052	0.676 ± 0.013
SRSGPDSTNIKL [MPP10 C-terminal 12 aa]	0.688 ± 0.011	0.667 ± 0.0034
SSIFVRVYKFWC [BAP3 C-terminal 12 aa]	0.698 ± 0.018	0.716 ± 0.096

Sequence	protein stability index [1]	protein stability index (genetic background: wild type)
SSNFASNIFSLF [YBR089W C-terminal 12 aa]	0.7346 ± 0.0049	0.448 ± 0.01
SSQQLTLRPPLG [YGL109W C-terminal 12 aa]	0.6922 ± 0.0068	0.669 ± 0.0086
SSSSNFLEESSS [YER148W-A C-terminal 12 aa]	0.7024 ± 0.00079	0.6861 ± 0.006
SSTTALDALNKE [TGL1 C-terminal 12 aa]	0.696 ± 0.0083	0.684 ± 0.048
SSVKNSVEMTDF [TDA11 C-terminal 12 aa]	0.7099 ± 0.0049	0.698 ± 0.012
SSYNSNVGHIKN [WHI3 C-terminal 12 aa]	0.705 ± 0.019	0.736 ± 0.0042
STIQTTSVDPTT [BSC1 C-terminal 12 aa]	0.7104 ± 0.0039	0.682 ± 0.036
STIRRLREMVEA [RPL43A C-terminal 12 aa]	0.547 ± 0.013	0.539 ± 0.028
STKILETSANYL [RVB1 C-terminal 12 aa]	0.69 ± 0.019	0.679 ± 0.047
STLSRPFTWEEI [ATG34 C-terminal 12 aa]	0.715 ± 0.031	0.75193 ± 0.00031
SVHLDQLLDGKE [CSI2 C-terminal 12 aa]	0.714 ± 0.0086	0.669 ± 0.013
SVLQQTSKEPFW [HOS4 C-terminal 12 aa]	0.732 ± 0.016	0.6975 ± 0.0026
SYEIFEGSKKVM [CET1 C-terminal 12 aa]	0.699 ± 0.033	0.6785 ± 0.0039
SYKSNQPSSQNT [MDM36 C-terminal 12 aa]	0.672 ± 0.017	0.675 ± 0.0096
TAAQMLEVQNEA [ARI1 C-terminal 12 aa]	0.6837 ± 0.0021	0.7016 ± 0.0034
TALDYVSEKKKN [STE24 C-terminal 12 aa]	0.679 ± 0.012	0.7093 ± 0.0027
TDGPNEKWLPDY [SKS1 C-terminal 12 aa]	0.7099 ± 0.0056	0.712 ± 0.046
TDISGEKNSSKI [RLM1 C-terminal 12 aa]	0.7039 ± 0.0055	0.756 ± 0.031
TDTTLIYDIDLE [SPT8 C-terminal 12 aa]	0.709 ± 0.036	0.718 ± 0.039
TEEVEKAISKSQ [YFH1 C-terminal 12 aa]	0.7018 ± 0.0027	0.7208 ± 0.0067
TESENDALDDLL [TLG2 C-terminal 12 aa]	0.714 ± 0.013	0.707 ± 0.0078

Sequence	protein stability index [1]	protein stability index (genetic background: wild type)
TGMGAAAIFIKE [POT1 C-terminal 12 aa]	0.688 ± 0.04	0.752 ± 0.049
TIDFFDPVKLKR [YEL025C C-terminal 12 aa]	0.724 ± 0.008	0.755 ± 0.015
TKDGEVVKESKK [PET117 C-terminal 12 aa]	0.677 ± 0.034	0.676 ± 0.027
TKEEIMHGLQAK [RPN5 C-terminal 12 aa]	0.682 ± 0.024	0.728 ± 0.01
TLEDLGAKVSLE [MNP1 C-terminal 12 aa]	0.696 ± 0.011	0.711 ± 0.031
TLNFEEARKEYV [YDR509W C-terminal 12 aa]	0.713 ± 0.016	0.728 ± 0.035
TNGNKSCLYWRV [FMP25 C-terminal 12 aa]	0.678 ± 0.012	0.66 ± 0.044
TNQASPHHIFRG [ORA1 C-terminal 12 aa]	0.702 ± 0.016	0.752 ± 0.038
TQEMENTKLAES [GIS1 C-terminal 12 aa]	0.692 ± 0.01	0.757 ± 0.0079
TRSSGDDQVFVF [PGA3 C-terminal 12 aa]	0.707 ± 0.0082	0.707 ± 0.012
TSTITTTITMTL [SHE10 C-terminal 12 aa]	0.636 ± 0.041	0.652 ± 0.042
TTDNVTVMVVFL [PTC1 C-terminal 12 aa]	0.489 ± 0.0077	0.5071 ± 0.0035
TVFASNSFGVYV [OST5 C-terminal 12 aa]	0.669 ± 0.02	0.709 ± 0.06
TVGTGLITRIIE [TUF1 C-terminal 12 aa]	0.694 ± 0.032	0.6945 ± 0.0066
TVHQLRDRGFDI [ENV9 C-terminal 12 aa]	0.73 ± 0.0077	0.717 ± 0.014
TVIALLVGWIYY [SCS22 C-terminal 12 aa]	0.241 ± 0.01	0.255 ± 0.0075
TVSNETKEARET [SPT14 C-terminal 12 aa]	0.6843 ± 0.0053	0.6715 ± 0.0044
TWFKYFKWLDMF [MRX3 C-terminal 12 aa]	0.7723 ± 0.0025	0.217 ± 0.0084
TYMLNGPAGLLM [YNL165W C-terminal 12 aa]	0.6979 ± 0.0034	0.684 ± 0.024
TYSTLINIDVSL [NIC96 C-terminal 12 aa]	0.702 ± 0.059	0.688 ± 0.046
VAEKIPENETTH [ISW1 C-terminal 12 aa]	0.6915 ± 0.0016	0.679 ± 0.031

Sequence	protein stability index [1]	protein stability index (genetic background: wild type)
VAPKPKTKQEKK [WRS1 C-terminal 12 aa]	0.684 ± 0.0071	0.658 ± 0.022
VDGFNDALQLSK [HEM14 C-terminal 12 aa]	0.685 ± 0.022	0.708 ± 0.026
VDMTSIFDFMLN [POL1 C-terminal 12 aa]	0.7408 ± 0.0055	0.709 ± 0.025
VDTILDEDFLLR [APC11 C-terminal 12 aa]	0.715 ± 0.016	0.712 ± 0.013
VEHRYHKSVSRL [YBR012C C-terminal 12 aa]	0.816 ± 0.046	0.759 ± 0.053
VENEDEPLFIER [INP51 C-terminal 12 aa]	0.708 ± 0.0089	0.683 ± 0.0088
VENTTVDFNYDM [YLR179C C-terminal 12 aa]	0.69 ± 0.016	0.681 ± 0.03
VFKSKCKKIYIG [DGR1 C-terminal 12 aa]	0.7125 ± 0.0067	0.457 ± 0.04
VFNNISLNFYIQ [YLL020C C-terminal 12 aa]	0.782 ± 0.059	0.692 ± 0.0021
VGFCGLYYYFRK [YPR195C C-terminal 12 aa]	0.647 ± 0.018	0.648 ± 0.015
VIIKVFIRRSDA [YJL086C C-terminal 12 aa]	0.515 ± 0.024	0.461 ± 0.014
VIPHRGKKPVQN [AUS1 C-terminal 12 aa]	0.68051 ± 0.00019	0.681 ± 0.037
VKDIHGRIPEML [AXL2 C-terminal 12 aa]	0.6952 ± 0.0058	0.694 ± 0.015
VKEYYKKSDVGR [ATG9 C-terminal 12 aa]	0.7026 ± 0.004	0.66 ± 0.011
VKFVYRQRIALV [YLL037W C-terminal 12 aa]	0.577 ± 0.0095	0.195 ± 0.0078
VKSLQVKKSHLK [CDC12 C-terminal 12 aa]	0.704 ± 0.0088	0.742 ± 0.13
VLGFFKRRSMKI [FRK1 C-terminal 12 aa]	0.72 ± 0.014	0.678 ± 0.018
VLNFFKRRSMRV [KIN4 C-terminal 12 aa]	0.625 ± 0.013	0.634 ± 0.084
VLSVISAVFGLI [PLB1 C-terminal 12 aa]	0.674 ± 0.016	0.672 ± 0.045
